{
  "source": "paper PMC6145145",
  "key": {"[1]": {"biological_target": "T1, POT1-K90E (human, UniProt Q9NUX5 1-634, K90E)", "T1 sequence": "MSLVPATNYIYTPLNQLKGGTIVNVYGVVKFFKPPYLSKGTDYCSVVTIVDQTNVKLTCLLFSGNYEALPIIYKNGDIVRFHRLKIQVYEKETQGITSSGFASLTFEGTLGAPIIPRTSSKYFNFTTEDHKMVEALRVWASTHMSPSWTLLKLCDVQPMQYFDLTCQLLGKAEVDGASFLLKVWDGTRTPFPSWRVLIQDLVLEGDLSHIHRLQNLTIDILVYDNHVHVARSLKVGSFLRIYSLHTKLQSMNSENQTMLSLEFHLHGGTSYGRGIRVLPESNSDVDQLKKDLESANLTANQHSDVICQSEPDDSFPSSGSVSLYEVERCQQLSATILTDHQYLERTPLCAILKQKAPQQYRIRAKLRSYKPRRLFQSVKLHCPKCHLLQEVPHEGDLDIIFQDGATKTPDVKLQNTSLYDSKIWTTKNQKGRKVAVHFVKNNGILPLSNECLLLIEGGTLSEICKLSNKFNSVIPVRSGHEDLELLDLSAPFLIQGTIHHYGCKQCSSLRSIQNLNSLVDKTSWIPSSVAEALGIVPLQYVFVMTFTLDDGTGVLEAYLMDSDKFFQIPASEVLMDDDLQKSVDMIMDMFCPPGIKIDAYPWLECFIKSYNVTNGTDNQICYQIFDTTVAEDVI", "assay": "EMSA"}, "[2]": {"biological_target": "T2, POT1 WT (human, UniProt Q9NUX5 1-634)", "T2 sequence": "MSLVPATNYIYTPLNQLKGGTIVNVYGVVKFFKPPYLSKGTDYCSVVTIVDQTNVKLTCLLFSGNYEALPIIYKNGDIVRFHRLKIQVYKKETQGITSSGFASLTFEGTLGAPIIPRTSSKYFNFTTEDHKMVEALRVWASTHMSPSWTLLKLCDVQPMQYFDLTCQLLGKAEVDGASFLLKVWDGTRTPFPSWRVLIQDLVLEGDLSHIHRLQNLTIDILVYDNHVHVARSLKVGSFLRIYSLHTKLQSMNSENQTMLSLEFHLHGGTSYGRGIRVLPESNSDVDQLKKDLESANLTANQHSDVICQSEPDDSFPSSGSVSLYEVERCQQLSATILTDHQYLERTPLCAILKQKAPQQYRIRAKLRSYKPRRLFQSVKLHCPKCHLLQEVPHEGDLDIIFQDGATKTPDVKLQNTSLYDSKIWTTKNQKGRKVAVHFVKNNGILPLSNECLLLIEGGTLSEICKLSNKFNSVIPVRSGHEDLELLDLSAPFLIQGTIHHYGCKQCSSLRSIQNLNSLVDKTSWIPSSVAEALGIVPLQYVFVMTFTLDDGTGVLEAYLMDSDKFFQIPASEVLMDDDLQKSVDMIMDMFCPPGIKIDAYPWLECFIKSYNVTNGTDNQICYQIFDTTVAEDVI", "assay": "EMSA"}},
  "data": [
    {"binder": "TTAGGGTTAGGGTTAGGG (ssDNA)", "note": "[telomeric primer (TTAGGG)3]", "values": [
      {"measurement": "binding result", "setting": "[1]", "result": "binds"},
      {"measurement": "binding result", "setting": "[2]", "result": "binds"}
    ]}
  ]
}
